Results: patent US20230040065A1 (Janssen / Centocor, published 2023)

Legend:
recombinant human TNFα [1] = biological target: T1, recombinant human TNFα (human, UniProt P01375 77-233, 125I label in the receptor binding assay); assay: inhibition of 125I-TNFα (5 ng/ml) binding to plate-coated p55-sf2; hybridoma supernatant preincubated with 125I-TNFα, cpm bound counted
T1 construct: also called huTNFα; tumor necrosis factor alpha
Protocol: Varying amounts of hybridoma cell supernatants containing known amounts of TNV mAb were preincubated with a fixed concentration (5 ng/ml) of ¹²⁵I-labeled TNFα. […] The amount of TNFα that bound to the p55 receptor in the presence of the mAbs was determined after washing away the unbound material and counting using a gamma counter. Although eight TNV mAb samples were tested in these experiments, for simplicity three of the mAbs that were shown by DNA sequence analyses to be identical to one of the other TNV mAbs (see Section 5.2.2) are not shown here. Each sample was tested in duplicate. The results shown are representative of two independent experiments.
(§1) 50:1 of p55-sf2 at 0.5:g/ml in PBS was added to Optiplates to coat the wells during a one-hour incubation at 37° C. Serial dilutions of the eight TNV cell supernatants were prepared in 96-well round-bottom plates using PBS/0.1% BSA as diluent. […] The mixture was preincubated for one hour at RT. The coated Optiplates were washed to remove unbound p55-sf2 and 50:1 of the ¹²⁵I-TNFα/cell supernatant mixture was transferred to the Optiplates. After 2 hrs at RT, Optiplates were washed three times with PBS-Tween. […] of Microscint-20 was added and the cpm bound determined using the TopCount gamma counter.

recombinant human TNFα [2] = biological target: T1, recombinant human TNFα; assay: cell-based or functional assay
recombinant human TNFα [3] = biological target: T1, recombinant human TNFα; assay: inhibition of 125I-TNFα binding to plate-coated p55-sf2, hybridoma supernatants
Protocol: as §1
A simple binding assay was done to determine whether the eight TNV mAbs contained in hybridoma cell supernatant were capable of blocking TNFα binding to receptor. The concentrations of the TNV mAbs in their respective cell supernatants were first determined by standard ELISA analysis for human IgG.

T1 sequence (P01375 77-233 limits assumed): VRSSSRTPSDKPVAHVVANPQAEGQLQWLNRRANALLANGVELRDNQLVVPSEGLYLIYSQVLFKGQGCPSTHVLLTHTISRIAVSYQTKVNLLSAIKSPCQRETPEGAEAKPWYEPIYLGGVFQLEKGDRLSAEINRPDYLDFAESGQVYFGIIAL

B1: TNV148 (GenTNV148.26.12) (antibody, human IgG1, kappa, V domains shown)
VH: QVQLVESGGGVVQPGRSLRLSCAASGFIFSSYAMHWVRQAPGNGLEWVAFMSYDGSNKKYADSVKGRFTISRDNPKNTLYLQMNSLRAEDTAVYYCARDRGIAAGGNYYYYGMDVWGQGTTVTVSS
VL: EIVLTQSPATLSLSPGERATLSCRASQSVYSYLAWYQQKPGQAPRLLIYDASNRATGIPARFSGSGSGTDFTLTISSLEPEDFAVYYCQQRSNWPPFTFGPGTKVDIKR
notes: Hybridoma-derived fully human IgG1 kappa mAb (G1m(z)); also called C420A
IC50 (read off the curve) (recombinant human TNFα [1]): ~4 ng/mL | neutralizing TNFα bioactivity (in vitro) (recombinant human TNFα [2]): 4 fold (against TNV14) | fold better at blocking TNF binding to p55-sf2, against TNV118 and TNV14 (recombinant human TNFα [3]): ~4 fold

B2: TNV86 (GenTNV86.14.34) (antibody, human IgG1, kappa, V domains shown)
VH: B1 VH
VL: B1 VL
notes: Hybridoma-derived fully human IgG1 kappa mAb; also called C417A
fold better at blocking TNF binding to p55-sf2, against TNV118 and TNV14 (recombinant human TNFα [3]): ~4 fold
